Measured values: patent publication US20140072613A1, “Compositions and Methods for Treating Cutaneous Scarring” (priority 2012, published 2014)

Tests used:
Assay in all cases: biochemical
Assay type in all cases: biochemical
266 human kinases [1] = biological target: T1, 266 human kinases (Homo sapiens, UniProt P42681); details: Txk(h); 100 μM
T1 sequence (P42681 1-527): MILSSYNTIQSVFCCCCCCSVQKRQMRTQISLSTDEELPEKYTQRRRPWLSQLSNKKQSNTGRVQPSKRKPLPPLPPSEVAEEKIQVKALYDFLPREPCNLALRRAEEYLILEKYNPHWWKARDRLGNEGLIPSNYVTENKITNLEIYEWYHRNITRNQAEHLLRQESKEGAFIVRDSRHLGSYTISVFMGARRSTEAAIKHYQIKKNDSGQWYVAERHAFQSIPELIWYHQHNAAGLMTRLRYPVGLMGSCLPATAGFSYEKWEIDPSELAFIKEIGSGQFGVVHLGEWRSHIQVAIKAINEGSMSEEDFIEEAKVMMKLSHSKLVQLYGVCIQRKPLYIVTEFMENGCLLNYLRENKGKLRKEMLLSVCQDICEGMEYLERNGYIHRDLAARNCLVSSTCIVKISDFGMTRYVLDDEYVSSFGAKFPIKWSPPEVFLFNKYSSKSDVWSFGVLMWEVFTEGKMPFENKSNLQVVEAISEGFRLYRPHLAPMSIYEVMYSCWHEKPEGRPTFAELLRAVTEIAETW
Excerpt: (§1) Specifically, in these assays, a positively charged substrate is phosphorylated with a radiolabeled phosphate group from an ATP if the kinase is not inhibited by an inhibitor peptide. The positively charged substrate then is attracted to a negatively charged filter membrane, quantified with a scintillation counter, and compared to a 100% activity control.

266 human kinases [2] = biological target: T2, 266 human kinases (Homo sapiens, UniProt Q8NG66); details: NEK11(h); 100 μM
T2 sequence (Q8NG66 1-645): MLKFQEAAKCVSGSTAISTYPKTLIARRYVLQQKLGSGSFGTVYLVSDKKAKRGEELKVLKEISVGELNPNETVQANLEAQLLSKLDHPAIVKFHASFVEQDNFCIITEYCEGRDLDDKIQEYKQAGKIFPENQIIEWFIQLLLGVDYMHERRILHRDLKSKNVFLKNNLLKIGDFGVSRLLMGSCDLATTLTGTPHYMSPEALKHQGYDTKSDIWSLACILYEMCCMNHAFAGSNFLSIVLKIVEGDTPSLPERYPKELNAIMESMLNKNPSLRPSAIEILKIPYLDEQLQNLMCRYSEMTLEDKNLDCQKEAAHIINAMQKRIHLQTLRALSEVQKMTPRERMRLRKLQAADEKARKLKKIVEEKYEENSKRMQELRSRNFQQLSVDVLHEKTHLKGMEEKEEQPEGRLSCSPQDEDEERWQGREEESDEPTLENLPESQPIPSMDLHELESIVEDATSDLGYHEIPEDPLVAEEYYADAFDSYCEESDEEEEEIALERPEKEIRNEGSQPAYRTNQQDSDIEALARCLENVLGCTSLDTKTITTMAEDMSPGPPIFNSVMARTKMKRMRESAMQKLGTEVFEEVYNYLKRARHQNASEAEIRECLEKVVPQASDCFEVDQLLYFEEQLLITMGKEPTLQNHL
Excerpt: as §1

266 human kinases [3] = biological target: T3, 266 human kinases (Homo sapiens, UniProt Q02156); details: PKCε(h); 100 μM
T3 sequence (Q02156 1-737): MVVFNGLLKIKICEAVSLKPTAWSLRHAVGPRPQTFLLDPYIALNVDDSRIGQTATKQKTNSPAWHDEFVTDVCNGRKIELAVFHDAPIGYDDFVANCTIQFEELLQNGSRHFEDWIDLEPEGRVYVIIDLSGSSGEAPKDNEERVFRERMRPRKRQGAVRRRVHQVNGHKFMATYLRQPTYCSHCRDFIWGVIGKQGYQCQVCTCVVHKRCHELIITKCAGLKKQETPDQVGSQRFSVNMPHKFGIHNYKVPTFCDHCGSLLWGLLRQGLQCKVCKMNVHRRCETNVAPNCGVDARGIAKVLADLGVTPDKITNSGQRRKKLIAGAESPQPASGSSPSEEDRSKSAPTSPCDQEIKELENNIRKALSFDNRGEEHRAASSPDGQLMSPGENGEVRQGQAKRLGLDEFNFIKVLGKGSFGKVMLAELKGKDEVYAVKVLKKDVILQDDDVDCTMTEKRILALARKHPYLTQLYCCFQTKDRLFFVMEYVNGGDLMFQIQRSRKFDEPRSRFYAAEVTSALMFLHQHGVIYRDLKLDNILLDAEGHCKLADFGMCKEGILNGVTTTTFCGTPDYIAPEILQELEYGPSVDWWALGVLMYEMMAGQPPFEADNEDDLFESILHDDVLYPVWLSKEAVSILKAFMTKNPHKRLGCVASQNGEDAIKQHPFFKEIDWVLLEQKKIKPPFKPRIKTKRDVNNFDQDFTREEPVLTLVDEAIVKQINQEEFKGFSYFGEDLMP
Excerpt: as §1

266 human kinases [4] = biological target: 266 human kinases (Homo sapiens, UniProt P00519, T315I); details: Abl(T315I)(h); 100 μM
Excerpt: as §1

266 human kinases [5] = biological target: 266 human kinases (Homo sapiens, UniProt Q00534); details: CDK6/cyclinD3(h); 100 μM
Excerpt: as §1

266 human kinases [6] = biological target: T4, 266 human kinases (Homo sapiens, UniProt P41743); details: PKCι(h); 100 μM
T4 sequence (P41743 1-596): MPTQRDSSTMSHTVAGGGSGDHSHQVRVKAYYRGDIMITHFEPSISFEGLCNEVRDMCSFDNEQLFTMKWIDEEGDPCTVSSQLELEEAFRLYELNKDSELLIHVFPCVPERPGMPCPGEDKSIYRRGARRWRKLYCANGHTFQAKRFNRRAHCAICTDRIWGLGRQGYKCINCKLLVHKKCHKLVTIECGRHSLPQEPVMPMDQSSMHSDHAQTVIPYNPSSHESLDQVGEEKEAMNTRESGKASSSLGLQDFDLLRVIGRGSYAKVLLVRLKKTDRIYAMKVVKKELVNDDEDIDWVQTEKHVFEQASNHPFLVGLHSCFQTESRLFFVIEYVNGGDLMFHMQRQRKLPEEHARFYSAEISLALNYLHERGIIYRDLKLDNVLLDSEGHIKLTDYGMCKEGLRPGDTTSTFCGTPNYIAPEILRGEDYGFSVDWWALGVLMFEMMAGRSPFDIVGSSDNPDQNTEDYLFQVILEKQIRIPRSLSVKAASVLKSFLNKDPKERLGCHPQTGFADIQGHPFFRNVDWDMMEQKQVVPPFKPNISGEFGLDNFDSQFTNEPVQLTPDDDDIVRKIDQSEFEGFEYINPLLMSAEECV
Excerpt: as §1

266 human kinases [7] = biological target: 266 human kinases (Homo sapiens, UniProt Q13555); details: CaMKIIγ(h); 100 μM
Excerpt: as §1

266 human kinases (Homo sapiens, UniProt Q13555), sequence (Q13555 whole entry): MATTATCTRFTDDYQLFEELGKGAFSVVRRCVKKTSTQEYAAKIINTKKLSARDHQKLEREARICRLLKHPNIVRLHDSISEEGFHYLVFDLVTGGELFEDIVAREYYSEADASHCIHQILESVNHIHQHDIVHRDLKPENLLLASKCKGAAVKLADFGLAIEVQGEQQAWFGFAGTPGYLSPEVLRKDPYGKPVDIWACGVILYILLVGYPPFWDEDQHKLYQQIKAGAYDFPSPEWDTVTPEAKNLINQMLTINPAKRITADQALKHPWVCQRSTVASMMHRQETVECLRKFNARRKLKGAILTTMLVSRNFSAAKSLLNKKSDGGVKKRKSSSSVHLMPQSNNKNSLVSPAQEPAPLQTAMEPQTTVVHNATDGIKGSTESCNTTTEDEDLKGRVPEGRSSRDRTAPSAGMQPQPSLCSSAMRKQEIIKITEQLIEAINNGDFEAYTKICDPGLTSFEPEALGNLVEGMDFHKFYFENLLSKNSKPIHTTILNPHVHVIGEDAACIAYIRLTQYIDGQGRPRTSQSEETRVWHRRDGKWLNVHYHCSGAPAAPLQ
266 human kinases (Homo sapiens, UniProt Q00534), sequence (Q00534 whole entry): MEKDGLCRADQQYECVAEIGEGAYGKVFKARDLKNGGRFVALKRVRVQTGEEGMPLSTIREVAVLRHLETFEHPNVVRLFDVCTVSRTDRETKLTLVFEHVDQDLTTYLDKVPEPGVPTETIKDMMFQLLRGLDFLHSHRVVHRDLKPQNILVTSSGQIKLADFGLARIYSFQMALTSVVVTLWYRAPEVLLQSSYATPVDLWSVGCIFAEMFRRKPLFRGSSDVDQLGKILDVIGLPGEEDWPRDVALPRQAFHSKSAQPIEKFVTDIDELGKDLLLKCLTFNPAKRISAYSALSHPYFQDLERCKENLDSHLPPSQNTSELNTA

Sequence | % activity (266 human kinases [1]) [%] | % activity (266 human kinases [2]) [%] | % activity (266 human kinases [3]) [%] | % activity (266 human kinases [4]) [%] | % activity (266 human kinases [5]) [%] | % activity (266 human kinases [6]) [%] | % activity (266 human kinases [7]) [%]
HRRIKAWLKKIKALARQLGVAA (mammal) [MMI-0500] | 10 | 2 | 23 | 16 | 23 | 7 | 3
YARAAARQARAKALNRQLGVA (mammal) [MMI-0200] | 98 | 95 | 98 | 108 | 100 | 97 | 94
